Data as given in US20120034160A1 (AbbVie / Abbott, published 2012).

T1: Recombinant Human IL-17 (human, UniProt Q16552 20-155, limits assumed)
T1 sequence (looked up): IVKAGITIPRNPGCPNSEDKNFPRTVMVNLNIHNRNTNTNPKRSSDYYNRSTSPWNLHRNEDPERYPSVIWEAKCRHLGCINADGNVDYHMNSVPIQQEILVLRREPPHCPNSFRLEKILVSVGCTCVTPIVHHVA


Experiments:
Recombinant Human IL-1β = Recombinant Human IL-1β (human, UniProt P01584 117-269); experiment: cell-based or functional assay
Recombinant Human IL-17 = target: T1, Recombinant Human IL-17; experiment: cell-based or functional assay

Binder	C-Terminal VD IL-1β Neutralization Assay EC50 (Recombinant Human IL-1β) [nM]	N-terminal VD IL-17 Neutralization Assay EC50 (Recombinant Human IL-17) [nM]	N-Terminal VD IL-1β Neutralization Assay EC50 (Recombinant Human IL-1β) [nM]	C-terminal VD IL-17 Neutralization Assay EC50 (Recombinant Human IL-17) [nM]
DVD1614 (bispecific antibody, human IgG1, kappa) heavy: not shown light: EIVLTQSPDFQSVTPKEKVTITCRASQNIGSELHWYQQKPDQSPKLLIKYASHSISGVPSRFSGSGSGTDFTLTINGLEAEDAATYYCHQSDTLPHTFGQGTKVDIKRTVAAPSVFIFPPDTQVTQSPSSLSASVGDRVTITCITSTDIDVDMNWYQQKPGKPPKLLISQGNTLRPGVPSRFSSSGSGTDFTFTISSLQPEDFATYYCLQSDNLPLTFGQGTKLEIKRTVAAPSVFIFPPSDEQLKSGTASVVCLLNNFYPREAKVQWKVDNALQSGNSQESVTEQDSKDSTYSLSSTLTLSKADYEKHKVYACEVTHQGLSSPVTKSFNRGEC	0.801	0.0142	–	–
DVD1615 (bispecific antibody, human IgG1, kappa) heavy: not shown light: DTVVTQSPAFLSVTPGEKVTITCITSTDIDVDMNWYQQKPDQPPKLLISQGNTLRPGVPSRFSSSGSGTDFTFTISSLEAEDAATYYCLQSDNLPLTFGQGTKLEIKRTVAAPSVFIFPPEIVLTQSPDFQSVTPKEKVTITCRASQNIGSELHWYQQKPDQSPKLLIKYASHSISGVPSRFSGSGSGTDFTLTINGLEAEDAATYYCHQSDTLPHTFGQGTKVDIKRTVAAPSVFIFPPSDEQLKSGTASVVCLLNNFYPREAKVQWKVDNALQSGNSQESVTEQDSKDSTYSLSSTLTLSKADYEKHKVYACEVTHQGLSSPVTKSFNRGEC	–	–	0.191	0.061
DVD1616 (bispecific antibody, human IgG1, kappa) heavy: not shown light: EIVLTQSPDFQSVTPKEKVTITCRASQNIGSELHWYQQKPDQSPKLLIKYASHSISGVPSRFSGSGSGTDFTLTINGLEAEDAATYYCHQSDTLPHTFGQGTKVDIKRTVAAPSVFIFPPDTVVTQSPAFLSVTPGEKVTITCITSTDIDVDMNWYQQKPDQPPKLLISQGNTLRPGVPSRFSSSGSGTDFTFTISSLEAEDAATYYCLQSDNLPLTFGQGTKLEIKRTVAAPSVFIFPPSDEQLKSGTASVVCLLNNFYPREAKVQWKVDNALQSGNSQESVTEQDSKDSTYSLSSTLTLSKADYEKHKVYACEVTHQGLSSPVTKSFNRGEC	1.12	0.0062	–	–
DVD1617 (bispecific antibody, human IgG1, kappa) heavy: not shown light: ETTVTQSPSSLSASVGDRVTITCITSTDIDVDMNWYQQKPGKPPKLLISQGNTLRPGVPSRFSSSGSGTDFTFTISSLQPEDFATYYCLQSDNLPLTFGQGTKLEIKRTVAAPSVFIFPPEIVLTQSPDFQSVTPKEKVTITCRASQNIGSELHWYQQKPDQSPKLLIKYASHSISGVPSRFSGSGSGTDFTLTINGLEAEDAATYYCHQSDTLPHTFGQGTKVDIKRTVAAPSVFIFPPSDEQLKSGTASVVCLLNNFYPREAKVQWKVDNALQSGNSQESVTEQDSKDSTYSLSSTLTLSKADYEKHKVYACEVTHQGLSSPVTKSFNRGEC	–	–	0.247	0.0424
DVD1618 (bispecific antibody, human IgG1, kappa) heavy: not shown light: EIVLTQSPDFQSVTPKEKVTITCRASQNIGSELHWYQQKPDQSPKLLIKYASHSISGVPSRFSGSGSGTDFTLTINGLEAEDAATYYCHQSDTLPHTFGQGTKVDIKRTVAAPSVFIFPPETTVTQSPSSLSASVGDRVTITCITSTDIDVDMNWYQQKPGKPPKLLISQGNTLRPGVPSRFSSSGSGTDFTFTISSLQPEDFATYYCLQSDNLPLTFGQGTKLEIKRTVAAPSVFIFPPSDEQLKSGTASVVCLLNNFYPREAKVQWKVDNALQSGNSQESVTEQDSKDSTYSLSSTLTLSKADYEKHKVYACEVTHQGLSSPVTKSFNRGEC	2.75	0.0045	–	–
DVD1619 (bispecific antibody, human IgG1, kappa) heavy: not shown light: DIQMTQSPSSLSASVGDRVTITCRASGNIHNYLTWYQQTPGKAPKLLIYNAKTLADGVPSRFSGSGSGTDYTFTISSLQPEDIATYYCQHFWSIPYTFGQGTKLQITRTVAAPDIQMTQSPSSLSASVGDRVTITCRASSGIISYIDWFQQKPGKAPKRLIYATFDLASGVPSRFSGSGSGTDYTLTISSLQPEDFATYYCRQVGSYPETFGQGTKLEIKRTVAAPSVFIFPPSDEQLKSGTASVVCLLNNFYPREAKVQWKVDNALQSGNSQESVTEQDSKDSTYSLSSTLTLSKADYEKHKVYACEVTHQGLSSPVTKSFNRGEC	–	–	0.139	0.0345
DVD1620 (bispecific antibody, human IgG1, kappa) heavy: not shown light: DIQMTQSPSSLSASVGDRVTITCRASSGIISYIDWFQQKPGKAPKRLIYATFDLASGVPSRFSGSGSGTDYTLTISSLQPEDFATYYCRQVGSYPETFGQGTKLEIKRTVAAPDIQMTQSPSSLSASVGDRVTITCRASGNIHNYLTWYQQTPGKAPKLLIYNAKTLADGVPSRFSGSGSGTDYTFTISSLQPEDIATYYCQHFWSIPYTFGQGTKLQITRTVAAPSVFIFPPSDEQLKSGTASVVCLLNNFYPREAKVQWKVDNALQSGNSQESVTEQDSKDSTYSLSSTLTLSKADYEKHKVYACEVTHQGLSSPVTKSFNRGEC	17.4	0.0067	–	–
DVD1621 (bispecific antibody, human IgG1, kappa) heavy: not shown light: DIQMTQSPSSLSASVGDRVTITCRASGNIHNYLTWYQQTPGKAPKLLIYNAKTLADGVPSRFSGSGSGTDYTFTISSLQPEDIATYYCQHFWSIPYTFGQGTKLQITRTVAAPDIQMTQSPSSLSASVGDRVTITCRASSGIISYIDWFQQKPGKAPKRLIYATFDLASGVPSRFSGSGSGTDYTLTISSLQPEDFATYYCRQVGSYPETFGQGTKLEIKRTVAAPSVFIFPPSDEQLKSGTASVVCLLNNFYPREAKVQWKVDNALQSGNSQESVTEQDSKDSTYSLSSTLTLSKADYEKHKVYACEVTHQGLSSPVTKSFNRGEC	–	–	0.0114	0.0397
DVD1622 (bispecific antibody, human IgG1, kappa) heavy: not shown light: DIQMTQSPSSLSASVGDRVTITCRASSGIISYIDWFQQKPGKAPKRLIYATFDLASGVPSRFSGSGSGTDYTLTISSLQPEDFATYYCRQVGSYPETFGQGTKLEIKRTVAAPDIQMTQSPSSLSASVGDRVTITCRASGNIHNYLTWYQQTPGKAPKLLIYNAKTLADGVPSRFSGSGSGTDYTFTISSLQPEDIATYYCQHFWSIPYTFGQGTKLQITRTVAAPSVFIFPPSDEQLKSGTASVVCLLNNFYPREAKVQWKVDNALQSGNSQESVTEQDSKDSTYSLSSTLTLSKADYEKHKVYACEVTHQGLSSPVTKSFNRGEC	3.92	0.0083	–	–
DVD1623 (bispecific antibody, human IgG1, kappa) heavy: not shown light: DTQVTQSPSSLSASVGDRVTITCITSTDIDVDMNWYQQKPGKPPKLLISQGNTLRPGVPSRFSSSGSGTDFTFTISSLQPEDFATYYCLQSDNLPLTFGQGTKLEIKRTVAAPDIQMTQSPSSLSASVGDRVTITCRASSGIISYIDWFQQKPGKAPKRLIYATFDLASGVPSRFSGSGSGTDYTLTISSLQPEDFATYYCRQVGSYPETFGQGTKLEIKRTVAAPSVFIFPPSDEQLKSGTASVVCLLNNFYPREAKVQWKVDNALQSGNSQESVTEQDSKDSTYSLSSTLTLSKADYEKHKVYACEVTHQGLSSPVTKSFNRGEC	–	–	0.16	0.0238
DVD1624 (bispecific antibody, human IgG1, kappa) heavy: not shown light: DIQMTQSPSSLSASVGDRVTITCRASSGIISYIDWFQQKPGKAPKRLIYATFDLASGVPSRFSGSGSGTDYTLTISSLQPEDFATYYCRQVGSYPETFGQGTKLEIKRTVAAPDTQVTQSPSSLSASVGDRVTITCITSTDIDVDMNWYQQKPGKPPKLLISQGNTLRPGVPSRFSSSGSGTDFTFTISSLQPEDFATYYCLQSDNLPLTFGQGTKLEIKRTVAAPSVFIFPPSDEQLKSGTASVVCLLNNFYPREAKVQWKVDNALQSGNSQESVTEQDSKDSTYSLSSTLTLSKADYEKHKVYACEVTHQGLSSPVTKSFNRGEC	> 20	0.0042	–	–
DVD1625 (bispecific antibody, human IgG1, kappa) heavy: not shown light: DTVVTQSPAFLSVTPGEKVTITCITSTDIDVDMNWYQQKPDQPPKLLISQGNTLRPGVPSRFSSSGSGTDFTFTISSLEAEDAATYYCLQSDNLPLTFGQGTKLEIKRTVAAPDIQMTQSPSSLSASVGDRVTITCRASSGIISYIDWFQQKPGKAPKRLIYATFDLASGVPSRFSGSGSGTDYTLTISSLQPEDFATYYCRQVGSYPETFGQGTKLEIKRTVAAPSVFIFPPSDEQLKSGTASVVCLLNNFYPREAKVQWKVDNALQSGNSQESVTEQDSKDSTYSLSSTLTLSKADYEKHKVYACEVTHQGLSSPVTKSFNRGEC	–	–	0.522	0.0076
DVD1626 (bispecific antibody, human IgG1, kappa) heavy: not shown light: DIQMTQSPSSLSASVGDRVTITCRASSGIISYIDWFQQKPGKAPKRLIYATFDLASGVPSRFSGSGSGTDYTLTISSLQPEDFATYYCRQVGSYPETFGQGTKLEIKRTVAAPDTVVTQSPAFLSVTPGEKVTITCITSTDIDVDMNWYQQKPDQPPKLLISQGNTLRPGVPSRFSSSGSGTDFTFTISSLEAEDAATYYCLQSDNLPLTFGQGTKLEIKRTVAAPSVFIFPPSDEQLKSGTASVVCLLNNFYPREAKVQWKVDNALQSGNSQESVTEQDSKDSTYSLSSTLTLSKADYEKHKVYACEVTHQGLSSPVTKSFNRGEC	17.4	0.0064	–	–
DVD1627 (bispecific antibody, human IgG1, kappa) heavy: not shown light: ETTVTQSPSSLSASVGDRVTITCITSTDIDVDMNWYQQKPGKPPKLLISQGNTLRPGVPSRFSSSGSGTDFTFTISSLQPEDFATYYCLQSDNLPLTFGQGTKLEIKRTVAAPDIQMTQSPSSLSASVGDRVTITCRASSGIISYIDWFQQKPGKAPKRLIYATFDLASGVPSRFSGSGSGTDYTLTISSLQPEDFATYYCRQVGSYPETFGQGTKLEIKRTVAAPSVFIFPPSDEQLKSGTASVVCLLNNFYPREAKVQWKVDNALQSGNSQESVTEQDSKDSTYSLSSTLTLSKADYEKHKVYACEVTHQGLSSPVTKSFNRGEC	–	–	0.621	0.0586
